PMC4574047, “Biochemical Characterization of Putative Adenylate Dimethylallyltransferase and Cytokinin Dehydrogenase from Nostoc sp. PCC 7120” (PLoS ONE, 2015)

B1: NoIPT1 (Nostoc sp. PCC 7120 = FACHB-418) (protein)
chain: MRLHIILGPTSVGKTDRSVVLAKQTKAPVIVLDRIQIYQEIATGSGRPLIDELEGTTRIYLEERQLADGNLNTLESLSLALQHIDRLSSQHKLLILEGGSISLCTALWKSRILENYQTTIEYVKVENEELYQSRLWRRMQNALISNPRRPSLIEELSRVWQDPHKLALVRTVVGYDVLIHWCQKYGLSPDQMWKSFQDNSFYINLMQEMFLAYMQYSQNQRQAFDQLAVEYKQQQALLASTVTL
notes: full gene in pET-28b(+) (NdeI/SalI), N-terminal polyhistidine tag kept; E. coli BL21(DE3) STAR

How the values were obtained:
[1] = biological target: T1, NoIPT1 (Nostoc sp. PCC 7120 = FACHB-418, UniProt A0ACD7S271); assay: HPLC-UV product determination; trans-zeatin-5'-monophosphate formed; format: biochemical; details: with AMP, 10 mM MgCl2, pH 7.5, 25°C
T1 construct: gene all0220; full gene in pET-28b(+) (NdeI/SalI), N-terminal polyhistidine tag kept; E. coli BL21(DE3) STAR
T1 sequence (A0ACD7S271 1-244): B1 chain

[2] = substrate: Nc1ncnc2c1ncn2[C@@H]1O[C@H](COP(=O)(O)O)[C@@H](O)[C@H]1O; assay: purified protein; format: biochemical, Nostoc sp. PCC 7120 = FACHB-418; details: 150 μM DMAPP, 10 mM MgCl2, 100 mM Tris/HCl pH 7.5, 25°C
[3] = substrate: CC(C)=CCOP(=O)(O)OP(=O)(O)O; assay: purified protein; format: biochemical, Nostoc sp. PCC 7120 = FACHB-418; details: 20 μM AMP, 10 mM MgCl2, 100 mM Tris/HCl pH 7.5, 25°C

Molecule	HPLC-UV product determination; trans-zeatin-5'-monophosphate formed [1]	Km [2]	Km [3]
C/C(=C\COP(=O)(O)OP(=O)(O)O)CO [HMBPP, (E)-4-hydroxy-3-methyl-but-2-enyl diphosphate]	NoIPT1 used a hydroxylated side chain precursor, HMBPP, to form trans-zeatin-5´-monophosphate in the reaction with AMP	–	–
B1	–	0.63 ± 0.18 µM	27.05 ± 2.47 µM
